According to patent US20220016254A1 (BEIJING QL BIOPHARMACEUTICAL, published 2022):
Residue numbers refer to the chain shown, from its start.

T1: human beta-Klotho (human, UniProt Q86Z14 1-1044)
T1 sequence (looked up): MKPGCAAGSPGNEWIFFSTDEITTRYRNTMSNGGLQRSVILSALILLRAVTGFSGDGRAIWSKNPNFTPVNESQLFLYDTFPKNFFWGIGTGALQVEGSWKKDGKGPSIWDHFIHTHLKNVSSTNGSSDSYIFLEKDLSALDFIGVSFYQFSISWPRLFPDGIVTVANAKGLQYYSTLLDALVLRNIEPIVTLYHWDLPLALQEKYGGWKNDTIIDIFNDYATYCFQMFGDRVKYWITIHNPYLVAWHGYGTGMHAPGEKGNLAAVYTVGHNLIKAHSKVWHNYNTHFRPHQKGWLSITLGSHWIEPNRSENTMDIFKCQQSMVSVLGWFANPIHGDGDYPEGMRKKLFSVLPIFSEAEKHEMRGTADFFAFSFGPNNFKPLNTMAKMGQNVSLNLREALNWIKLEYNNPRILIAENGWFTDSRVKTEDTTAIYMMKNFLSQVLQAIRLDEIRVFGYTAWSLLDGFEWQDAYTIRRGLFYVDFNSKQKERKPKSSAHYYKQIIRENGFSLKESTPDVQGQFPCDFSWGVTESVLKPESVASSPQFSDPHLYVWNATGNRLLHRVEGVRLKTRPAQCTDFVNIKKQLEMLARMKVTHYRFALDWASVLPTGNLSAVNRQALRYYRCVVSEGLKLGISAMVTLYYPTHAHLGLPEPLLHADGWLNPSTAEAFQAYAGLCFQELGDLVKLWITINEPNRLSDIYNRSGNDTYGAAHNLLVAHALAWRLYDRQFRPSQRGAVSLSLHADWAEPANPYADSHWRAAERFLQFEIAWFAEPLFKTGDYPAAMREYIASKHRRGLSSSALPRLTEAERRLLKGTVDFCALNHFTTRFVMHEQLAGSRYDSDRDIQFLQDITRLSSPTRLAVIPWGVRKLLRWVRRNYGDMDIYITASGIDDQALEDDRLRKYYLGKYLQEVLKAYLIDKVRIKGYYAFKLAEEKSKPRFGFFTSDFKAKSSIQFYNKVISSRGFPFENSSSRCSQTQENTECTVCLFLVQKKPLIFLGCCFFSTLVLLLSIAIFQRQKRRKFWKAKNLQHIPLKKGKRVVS

B1: Compound 70 (ligand)
chain: HGEGTFTSDVSSYLEEQAAKEFIAWLVKGGGGGGGSGGGGSGGGGSGGGGCHPIPDSSPLLQFGGQVRQRYLYTDDAQQTEAHLEIREDGTVGGAADQSPESLLQLKALKPGVIQILGVKTSRFLCQRPDGALYGSLHFDPEACSFRELLLEDGYNVYQSEAHGLPLHLPGQKSPHRDPAPRGPARFLPLPGLPPALPEPPGILAPQPPDVGSSDPLSC
modifications: Moiety B (HOOC-(CH2)20-CO-gGlu-2XADO-EDA-CO-CH2) on 51C and 219C of fusion polypeptide
B2: Compound 50 (ligand)
chain: HGEGTFTSDVSSYLEEQAAREFIAWLVRGGGGGGGSGGGGSGGGGSGGGGKHPIPDSSPLLQFGGQVRQRYLYTDDAQQTEAHLEIREDGTVGGAADQSPESLLQLRALRPGVIQILGVRTSRFLCQRPDGALYGSLHFDPEACSFRELLLEDGYNVYQSEAHGLPLHLPGQRSPHRDPAPRGPARFLPLPGLPPALPEPPGILAPQPPDVGSSDPLSLVGGSQGRSPSYESK
modifications: Moiety A (HOOC-(CH2)16-CO-gGlu-2XADO) on 51K and 233K of fusion polypeptide
B3: Compound 69 (ligand)
chain: EGTFTSDVSSYLEEQAAKEFIAWLVKGGGGGGGSGGGGSGGGGSGGGGCHPIPDSSPLLQFGGQVRQRYLYTDDAQQTEAHLEIREDGTVGGAADQSPESLLQLKALKPGVIQILGVKTSRFLCQRPDGALYGSLHFDPEACSFRELLLEDGYNVYQSEAHGLPLHLPGQKSPHRDPAPRGPARFLPLPGLPPALPEPPGILAPQPPDVGSSDPLSLVGCSQGRSPSYES
modifications: Moiety B (HOOC-(CH2)20-CO-gGlu-2XADO-EDA-CO-CH2) on 49C and 220C of fusion polypeptide
B4: Compound 51 (ligand)
chain: HGEGTFTSDVSSYLEEQAAKEFIAWLVRGGGGGGGSGGGGSGGGGSGGGGCHPIPDSSPLLQFGGQVRQRYLYTDDAQQTEAHLEIREDGTVGGAADQSPESLLQLKALKPGVIQILGVKTSRFLCQRPDGALYGSLHFDPEACSFRELLLEDGYNVYQSEAHGLPLHLPGQKSPHRDPAPRGPARFLPLPGLPPALPEPPGILAPQPPDVGSSDPLSLVGCSQGRSPSYES
modifications: Moiety B (HOOC-(CH2)20-CO-gGlu-2XADO-EDA-CO-CH2) on 51C and 222C of fusion polypeptide
B5: Compound 4 (ligand)
chain: B4 chain with K20R, C51K, K107R, K110R, K120R, K173R, C222G, E231K
modifications: Moiety A (HOOC-(CH2)16-CO-gGlu-2XADO) on 51K and 231K of fusion polypeptide
B6: Compound 63 (ligand)
chain: B4 chain with R28K
modifications: Moiety B (HOOC-(CH2)20-CO-gGlu-2XADO-EDA-CO-CH2) on 51C and 222C of fusion polypeptide
B7: Compound 54 (ligand)
chain: B4 chain with C222G, E231C
modifications: Moiety B (HOOC-(CH2)20-CO-gGlu-2XADO-EDA-CO-CH2) on 51C and 231C of fusion polypeptide
B8: Compound 5 (ligand)
chain: B4 chain with K20R, C51K, K107R, K110R, K120R, K173R, C222K, E231A
modifications: Moiety A (HOOC-(CH2)16-CO-gGlu-2XADO) on 51K and 222K of fusion polypeptide
B9: Compound 52 (ligand)
chain: B4 chain with C222G, G225C
modifications: Moiety B (HOOC-(CH2)20-CO-gGlu-2XADO-EDA-CO-CH2) on 51C and 225C of fusion polypeptide
B10: Compound 66 (ligand)
chain: HGEGTFTSDVSSYLEEQAAKEFIAWLVKGGGGSAPGSPAGSPTGSAPGSPCHPIPDSSPLLQFGGQVRQRYLYTDDAQQTEAHLEIREDGTVGGAADQSPESLLQLKALKPGVIQILGVKTSRFLCQRPDGALYGSLHFDPEACSFRELLLEDGYNVYQSEAHGLPLHLPGQKSPHRDPAPRGPARFLPLPGLPPALPEPPGILAPQPPDVGSSDPLSLVGGSQCRSPSYES
modifications: Moiety B (HOOC-(CH2)20-CO-gGlu-2XADO-EDA-CO-CH2) on 51C and 225C of fusion polypeptide
B11: Compound 71 (ligand)
chain: HGEGTFTSDVSSYLEEQAAKEFIAWLVKGGGGAQPGAQPGAQPGAQPGAQPCQAPGAQPGAQPGAQPGAQPGAQPGAQPGAQPGAQPGAQPGAQPGAQPGAQPGAQPGAQPHPIPDSSPLLQFGGQVRQRYLYTDDAQQTEAHLEIREDGTVGGAADQSPESLLQLKALKPGVIQILGVKTSRFLCQRPDGALYGSLHFDPEACSFRELLLEDGYNVYQSEAHGLPLHLPGQKSPHRDPAPRGPARFLPLPGLPPALPEPPGILAPQPPDVGSSDPLSLVGCSQGRSPSYES
modifications: Moiety B (HOOC-(CH2)20-CO-gGlu-2XADO-EDA-CO-CH2) on 52C and 282C of fusion polypeptide
B12: Compound 73 (ligand)
chain: B11 chain with A41Q, Q42C, C52G, Q53A, A54Q
modifications: Moiety B (HOOC-(CH2)20-CO-gGlu-2XADO-EDA-CO-CH2) on 42C and 282C of fusion polypeptide
B13: Compound 72 (ligand)
chain: B11 chain with C52G, Q53A, A54Q, A61Q, Q62C
modifications: Moiety B (HOOC-(CH2)20-CO-gGlu-2XADO-EDA-CO-CH2) on 62C and 282C of fusion polypeptide
B14: Compound 48 (ligand)
chain: HGEGTFTSDVSSYLEEQAAREFIAWLVRGGGGAQPGAQPGAQPGAQPGAQKHPIPDSSPLLQFGGQVRQRYLYTDDAQQTEAHLEIREDGTVGGAADQSPESLLQLRALRPGVIQILGVRTSRFLCQRPDGALYGSLHFDPEACSFRELLLEDGYNVYQSEAHGLPLHLPGQRSPHRDPAPRGPARFLPLPGLPPALPEPPGILAPQPPDVGSSDPLSLVGKSQGRSPSYES
modifications: Moiety A (HOOC-(CH2)16-CO-gGlu-2XADO) on 51K and 222K of fusion polypeptide

The binders below were run against T1, human beta-Klotho (assay: cell-based or functional assay).

Row | FGF21 activity (EC50, nM); p-ERK levels [nM] | Binder
1 | > 100 | B1
2 | 8.7 | B2
3 | 0.53 | B3
4 | 4.3 | B4
5 | 7.7 | B5
6 | 1.2 | B6
7 | 3.4 | B7
8 | 12.9 | B8
9 | 2.4 | B9
10 | 1 | B10
11 | 2.7 | B11
12 | 3.6 | B12
13 | 2.4 | B13
14 | 20.4 | B14

What follows are binders tested against human GLP-1 receptor (human, UniProt P43220 24-463) (assay: cell-based or functional assay).

Row | GLP-1 activity (EC50, pM); CRE luciferase reporter [pM] | Binder
15 | 24.8 | B1
16 | 15.4 | B2
17 | > 1000 | B3
18 | 30.7 | B4
19 | 25.1 | B5
20 | 49.1 | B6
21 | 19 | B7
22 | 23.1 | B8
23 | 30.2 | B9
24 | 41.3 | B10
25 | 16.5 | B11
26 | 16.6 | B12
27 | 16.5 | B13
28 | 14.4 | B14
